Experimental findings from US20110183888A1 are described below.

Some targets named below: JNK1, P45983; JNK2, P45984; JNK3, P53779.
What all share (experiment): cell-based or functional assay

Square brackets hold non-standard residues; d marks the D form. Ends that are not written are not given here.

Chain of JNK3, P53779 (P53779 whole entry): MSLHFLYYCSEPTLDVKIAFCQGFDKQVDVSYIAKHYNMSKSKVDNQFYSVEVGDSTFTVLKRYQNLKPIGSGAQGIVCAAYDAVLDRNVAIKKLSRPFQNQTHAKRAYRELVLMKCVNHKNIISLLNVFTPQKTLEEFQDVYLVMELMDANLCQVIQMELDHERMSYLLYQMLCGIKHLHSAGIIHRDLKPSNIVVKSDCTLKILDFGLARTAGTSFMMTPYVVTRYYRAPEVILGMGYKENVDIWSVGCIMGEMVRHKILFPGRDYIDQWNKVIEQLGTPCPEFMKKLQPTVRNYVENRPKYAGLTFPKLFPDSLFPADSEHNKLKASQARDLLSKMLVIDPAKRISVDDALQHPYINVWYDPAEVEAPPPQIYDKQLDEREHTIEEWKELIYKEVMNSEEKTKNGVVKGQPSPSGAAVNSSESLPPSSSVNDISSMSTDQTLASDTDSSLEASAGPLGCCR
Chain of JNK1, P45983 (P45983 whole entry): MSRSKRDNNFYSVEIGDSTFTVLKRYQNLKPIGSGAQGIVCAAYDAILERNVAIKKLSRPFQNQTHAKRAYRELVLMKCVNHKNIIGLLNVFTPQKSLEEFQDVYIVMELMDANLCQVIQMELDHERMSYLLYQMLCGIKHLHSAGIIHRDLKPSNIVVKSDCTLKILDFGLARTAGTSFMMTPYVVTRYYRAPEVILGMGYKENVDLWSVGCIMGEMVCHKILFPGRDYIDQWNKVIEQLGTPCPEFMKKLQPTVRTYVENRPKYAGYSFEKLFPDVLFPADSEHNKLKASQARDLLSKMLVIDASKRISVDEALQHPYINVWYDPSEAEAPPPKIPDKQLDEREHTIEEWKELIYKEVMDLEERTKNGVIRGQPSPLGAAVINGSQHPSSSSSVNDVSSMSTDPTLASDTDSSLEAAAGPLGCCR

B1: L-TAT-IB1(s) (peptide)
peptide: GRKKRRQRRRPPRPKRPTTLNLFPQVPRSQD
B1: the inhibition of c-Jun, ATF2 and Elk1 phosphorylation by JNKs (solid phase kinase assay, 33P, SDS-PAGE) with JNK1, P45983 was determined as 2.5 µM; with JNK2, P45984, 2.5 µM; in the assay with JNK3, P53779, 2.5 µM.

B2: D-TAT-IB1(s) (peptide)
peptide: [dD][dQ][dS][dR][dP][dV][dQ][dP][dF][dL][dN][dL][dT][dT][dP][dR][dK][dP][dR][dP][dP][dR][dR][dR][dQ][dR][dR][dK][dK][dR]G
As for B2, the inhibition of GST-Jun (aa 1-73) phosphorylation by recombinant JNK; fold less efficient than L-TAT-IB1(s) lay in the range of 10 to 20 fold with JNK1, P45983; 10 to 20 fold with JNK2, P45984; 10 to 20 fold with JNK3, P53779.
